Residue numbers refer to the chain shown, from its start.
B1: ALT01M1: herbicide tolerant protein, SEQ ID NO: 7; ALT01 with glycine to alanine at position 176 (protein)
chain: METDKKTGTSRRSFVKAAGTGAIGIATLPLSTATAFAETDNVELAQSKRKVVLAEQGSFYIGGRTVTGPGKFDPSKPVIPYSNEGATFYINQMYVNFQAPVRPRGLPLVFWHGGGLTGHIWESTPDGRPGFQTLFVQDRHTVYTIDQPGRGRGNIPTFNGPFGQLEEESIVNTVTANSSKEGAWVRDRLGPAPGQFFENSQFPRGYEDNYFKEMGFSPSISSDEIVDAVVKLVTHIGPCVLVTHSASGVLGMRVATHAKNVRGIVAYEPATSIFPKGKVPEIPPLADKKSQIFPPFEIQESYFKKLAKIPIQFVFGDNIPKNPKSAYWFLDWWRVTRYAHSLSLEAINKLGGQASLLDLPTAGLRGNTHFPFTDRNNVQVASLLSDFLGKHGLDQNES
modifications: the amino acid sequence of the herbicide tolerant protein ALT01M1
B2: ALT01M3: herbicide tolerant protein, SEQ ID NO: 15; ALT01 mutated at positions 80, 81, 176, 178 and 182 (protein)
chain: B1 chain with P80R, Y81A, S178V, G182R
modifications: the amino acid sequence of the herbicide tolerant protein ALT01M3
B3: ALT01M2: herbicide tolerant protein, SEQ ID NO: 11; ALT01 with serine to valine at position 178 (protein)
chain: B1 chain with A176G, S178V
modifications: the amino acid sequence of the herbicide tolerant protein ALT01M2
B4: ALT03M1: herbicide tolerant protein, SEQ ID NO: 39; ALT03 with glycine to alanine at position 140 (protein)
chain: METDNVELAQSKRKVVLAEQGSFYIGGRTVTGPGKFDPSKPVIPYSNEGATFYINQMYVNFQAPVRPRGLPLVFWHGGGLTGHIWESTPDGRPGFQTLFVQDRHTVYTIDQPGRGRGNIPTFNGPFGQLEEESIVNTVTANSSKEGAWVRDRLGPAPGQFFENSQFPRGYEDNYFKEMGFSPSISSDEIVDAVVKLVTHIGPCVLVTHSASGVLGMRVATHAKNVRGIVAYEPATSIFPKGKVPEIPPLADKKSQIFPPFEIQESYFKKLAKIPIQFVFGDNIPKNPKSAYWFLDWWRVTRYAHSLSLEAINKLGGQASLLDLPTAGLRGNTHFPFTDRNNVQVASLLSDFLGKHGLDQNES
modifications: the amino acid sequence of the ALT03M1
B5: ALT03M2: herbicide tolerant protein, SEQ ID NO: 43; ALT03 with serine to valine at position 142 (protein)
chain: B4 chain with A140G, S142V
modifications: the amino acid sequence of the ALT03M2
B6: ALT03M3: herbicide tolerant protein, SEQ ID NO: 47; ALT03 mutated at positions 44, 45, 140, 142 and 146 (protein)
chain: B4 chain with P44R, Y45A, S142V, G146R
modifications: The amino acid sequence of the ALT03M3
B7: ALT02M1: herbicide tolerant protein, SEQ ID NO: 23; ALT02 with glycine to alanine at position 140 (protein)
chain: METDNVELAQSKRKVVLAEQGSFYIGGRTVTGPGKFDPSKPVIPYSNEGATFYINQMYVNFQAPVRPRGLPLVFWHGGGLTGHIWESTPDGRPGFQTLFVQDRHTVYTIDQPGRGRGNIPTFNGPFGQLEEESIVNTVTANSSKEGAWVRDRLGPAPGQFFENSQFPRGYEDNYFKEMGFSPSISSDEIVDAVVKLVTHIGPCVLVTHSASGVLGMRVATHAKNVRGIVAYEPATSIFPKGKVPEIPPLADKKSQIFPPFEIQESYFKKLAKIPIQFVFGDNIPKNPKSAYWFLDWWRVTRYAHSLSLEAINKLGGQASLLDLPTAGLRGNTHFPFTDRNNVQVASLLSDFLGKHGLDQNESKLAAALE
modifications: the amino acid sequence of ALT02M1
B8: ALT02M3: herbicide tolerant protein, SEQ ID NO: 31; ALT02 mutated at positions 44, 45, 140, 142 and 146 (protein)
chain: B7 chain with P44R, Y45A, S142V, G146R
modifications: the amino acid sequence of the ALT02M3
B9: ALT02M2: herbicide tolerant protein, SEQ ID NO: 27; ALT02 with serine to valine at position 142 (protein)
chain: B7 chain with A140G, S142V
modifications: the amino acid sequence of the ALT02M2

Assay: not given
Assay type: biochemical
Details: not given
Procedure: (§1) Each reaction was timed beginning with the addition of reactive enzyme, and was terminated with 1 mL of dichloromethane. The organic phase after delamination was dehydrated with anhydrous sodium sulfate.
(§2) The above dehydrated reaction solution was blown dry with nitrogen and filtered by adding 1 mL of methanol, and 20 μL of the filtrate was subjected to liquid chromatography-mass spectrometry (LC-MS). High performance liquid chromatography (HPLC) conditions were as follows: mobile phase being methanol:water (80:20, V/V), Zorbax XDB-C18 chromatographic column (3.5 μm, 2.1×50 mm, Agilent, USA), column temperature being room temperature, UV detector, with a detection wavelength of 255 nm, a sample injection volume of 20 μL, and a flow rate of 0.25 mL/min. The primary ion mass spectrometry conditions were as follows: ion detection mode being multi-reactive ion detection; ion polarity being negative ion; ionization mode being electrospray ionization; a capillary voltage of 4000 volts; a dry gas temperature of 330° C., a flow rate of 10 L/min, an atomizing gas pressure of 35 psi, a collision voltage of 135 volts; and a mass scan range of 300-500 m/z. The secondary ion mass spectrometry conditions were as follows: a collision voltage of 90 volts; a mass scanning range of 30-400 m/z, and other conditions being the same as those of the primary ion mass spectrometry. It was identified by LC-MS that the metabolite of thifensulfuron-methyl was thiophene sulfonic acid, and the metabolite of metsulfuron-methyl, chlorimuron-ethyl, bensulfuron-methyl, sulfometuron-methyl or tribenuron-methyl was its corresponding sulfonic acid. The amount of the generated thiophene sulfonic acid (metabolite) was detected using high performance liquid chromatography (HPLC).

Row | Molecule | efficiency of degrading bensulfuron-methyl, fold of ALT01 [fold] | efficiency of degrading thifensulfuron-methyl, fold of ALT01 [fold] | efficiency of degrading chlorimuron-ethyl, fold of ALT01 [fold] | efficiency of degrading metsulfuron-methyl, fold of ALT01 [fold] | efficiency of degrading bensulfuron-methyl, fold of ALT03 [fold] | efficiency of degrading thifensulfuron-methyl, fold of ALT03 [fold] | efficiency of degrading chlorimuron-ethyl, fold of ALT03 [fold] | efficiency of degrading chlorimuron-ethyl, fold of ALT04 [fold] | efficiency of degrading metsulfuron-methyl, fold of ALT03 [fold] | efficiency of degrading metsulfuron-methyl, fold of ALT04 [fold]
1 | B1 | 2.3 | 3.3 | – | – | – | – | – | – | – | –
2 | B2 | – | – | 14.2 | 2.1 | – | – | – | – | – | –
3 | B3 | 1.4 | 3.9 | – | – | – | – | – | – | – | –
4 | B4 | – | – | – | – | 2.1 | 3.0 | – | – | – | –
5 | B5 | – | – | – | – | 1.3 | 3.5 | – | – | – | –
6 | B6 | – | – | – | – | – | – | 13.0 | 12.4 | 1.9 | 1.8

Same assay, conditions: not given

Row | Molecule | efficiency of degrading bensulfuron-methyl, fold of ALT02 [fold] | efficiency of degrading thifensulfuron-methyl, fold of ALT02 [fold] | efficiency of degrading chlorimuron-ethyl, fold of ALT02 [fold] | efficiency of degrading metsulfuron-methyl, fold of ALT02 [fold]
7 | B7 | 2.3 | 3.3 | – | –
8 | B8 | – | – | 14.2 | 2.1
9 | B9 | 1.4 | 3.9 | – | –

Same assay, conditions: 0.2 μg enzyme, 0.2 mM substrate, pH 7.0, 30° C., 20 min

Row | Molecule | specific enzyme activity, bensulfuron-methyl [µmol/min/mg] | specific enzyme activity, chlorimuron-ethyl [µmol/min/mg] | specific enzyme activity, metsulfuron-methyl [µmol/min/mg] | specific enzyme activity, thifensulfuron-methyl [µmol/min/mg] | specific enzyme activity, tribenuron-methyl [µmol/min/mg]
10 | B1 | 3.9 | 10.4 | 2.2 | 89.9 | 3.1
11 | B2 | 0.68 | 38.4 | 4.2 | 17.8 | 3.3
12 | B3 | 2.4 | 9.0 | 1.2 | 106.0 | 10.8
13 | B4 | 3.7 | 9.9 | 2.1 | 85.4 | 2.9
14 | B5 | 2.3 | 8.6 | 1.1 | 100.7 | 10.3
15 | B6 | 0.6 | 36.5 | 4.0 | 16.9 | 3.1
16 | B7 | 4.1 | 10.9 | 2.3 | 94.4 | 3.3
17 | B8 | 0.7 | 40.3 | 4.4 | 18.7 | 3.5
18 | B9 | 2.5 | 9.5 | 1.3 | 111.3 | 11.3

Assay: Degradation of sulfometuron-methyl by purified herbicide tolerant proteins (enzymatic activity, HPLC)
Assay type: biochemical
Details: 0.2 μg enzyme, 0.2 mM substrate, pH 7.0, 30° C., 20 min
Procedure: as §1, §2

Row | Molecule | specific enzyme activity, sulfometuron-methyl [µmol/min/mg]
19 | B1 | 5.4
20 | B2 | 1.1
21 | B3 | 3.5
22 | B4 | 5.1
23 | B5 | 3.3
24 | B6 | 1.0
25 | B7 | 5.7
26 | B8 | 1.2
27 | B9 | 3.7
